Data on 4 molecules can be found in paper PMC6123696, “Multitasking of Hsp70 chaperone in the biogenesis of bacterial functional amyloids” (Communications Biology, 2018).

Assay [1] addresses T1, N-terminal His-tagged DnaK (His-DnaK) (E. coli, UniProt P0A6Y8 1-638).
T1 construct: also called DnaKWT; bacterial Hsp70; source: E. coli BL21 (DE3), from pDnaKWT (ASKA clone), purified (TALON, Mono Q, Superdex G-200); not shown: His tag, N-terminal, kept
Briefly: SPR; BIAcore T200; CsgA peptides immobilised on a CM7 chip by EDC/NHS coupling; DnaK 50–1000 nM as analyte, single-cycle kinetics; 25 °C; HBS-DM buffer (10 mM HEPES pH 7.4, 150 mM NaCl, 5 mM MgCl2, 1% dimethylsulfoxide); 30 μL min^−1; fit with a 1:1 binding mode. As to conditions: both partners purified.

Assay [2] has as its target T1, N-terminal His-tagged DnaK (His-DnaK). Briefly: peptide or protein array; CelluSpot array of cellulose-bound peptides on glass slides (8-residue peptides overlapping by seven); 50 nM His-DnaK in DB buffer (25 mM Tris-HCl pH 7.5, 150 mM NaCl, 10 mM KCl, 0.05% Tween 20, 5% sucrose) overnight at 4 °C; detected with HRP-conjugated anti-His antibody. The note with it: both partners purified.

T1 sequence (P0A6Y8 whole entry): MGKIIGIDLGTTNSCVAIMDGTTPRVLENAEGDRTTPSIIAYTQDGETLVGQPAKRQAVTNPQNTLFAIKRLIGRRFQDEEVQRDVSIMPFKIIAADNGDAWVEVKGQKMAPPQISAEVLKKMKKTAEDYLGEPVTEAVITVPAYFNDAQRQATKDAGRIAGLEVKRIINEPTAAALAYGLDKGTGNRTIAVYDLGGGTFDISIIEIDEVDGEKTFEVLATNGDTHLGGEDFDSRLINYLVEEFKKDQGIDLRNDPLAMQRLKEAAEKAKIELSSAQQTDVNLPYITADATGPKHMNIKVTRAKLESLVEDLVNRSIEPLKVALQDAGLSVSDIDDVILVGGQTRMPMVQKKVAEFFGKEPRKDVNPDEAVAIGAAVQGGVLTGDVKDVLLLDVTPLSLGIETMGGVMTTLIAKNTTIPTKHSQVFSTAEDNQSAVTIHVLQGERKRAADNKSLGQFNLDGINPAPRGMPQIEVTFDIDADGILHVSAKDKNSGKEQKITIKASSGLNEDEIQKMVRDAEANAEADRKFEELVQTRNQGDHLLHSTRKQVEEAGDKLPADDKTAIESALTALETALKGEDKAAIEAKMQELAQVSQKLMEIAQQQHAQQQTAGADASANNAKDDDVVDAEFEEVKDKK

B1: CsgA_(133–151) (R5, the most amyloidogenic of the five repeats) (peptide)
peptide: SSVNVTQVGFGNNATAHQY
notes: source: synthetic peptide (Eurofins Genomics, HPLC >95%)
In assay [1], B1 returned a Kd of 20.7 nM, a koff of 9.77e-05 s⁻¹ and a kon of 4720 M⁻¹ s⁻¹.

B2: N-terminal 8-amino acid peptide of CsgA (NH2-KLLKVAAI-COOH) (peptide)
peptide: H-KLLKVAAI-OH
notes: source: synthetic peptide, CelluSpot peptide array (Intavis Bioanalytical Instruments)
Consider B2, for which, in assay [2], the binding result is “binds”.

B3: CsgA_(2–20) (signal peptide of CsgA without the N-terminal Met) (peptide)
peptide: KLLKVAAIAAIVFSGSALA
notes: also called CsgA signal peptide; source: synthetic peptide (Eurofins Genomics, HPLC >95%)
As to B3, in assay [1], the Kd was determined as 2.19 nM, the koff worked out at 0.000256 s⁻¹ and the kon was found to be 117000 M⁻¹ s⁻¹.

B4: N-terminal 8-amino acid peptide of CsgB (NH2-KNKLLFMM-COOH) (peptide)
peptide: H-KNKLLFMM-OH
notes: as for B2
B4: in assay [2], the binding result is “binds”.
